The target in the test is T1, Aurora-A kinase domain 122-403 C290A,C393A (UniProt O14965 122-403, C290A | C393A).
T1 construct: Aurora-A Ser/Thr kinase, kinase domain, residues 122-403
T1 sequence (looked up): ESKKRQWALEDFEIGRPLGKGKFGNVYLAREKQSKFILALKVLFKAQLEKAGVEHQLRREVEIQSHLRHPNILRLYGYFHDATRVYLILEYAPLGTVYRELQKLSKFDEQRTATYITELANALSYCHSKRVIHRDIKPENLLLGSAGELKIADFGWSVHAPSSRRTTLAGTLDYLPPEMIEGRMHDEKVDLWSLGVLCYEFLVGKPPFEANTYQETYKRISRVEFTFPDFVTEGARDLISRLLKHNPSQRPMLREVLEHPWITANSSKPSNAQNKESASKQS
The test is described as follows: NMR titration; 1H-15N HSQC of 15N-labelled N-myc constructs (150-315 uM); aliquots of Aurora-A (305-400 uM) added up to [N-myc]:[Aurora-A] 1:1.4; 20 mM (K/H)3PO4 pH 6.5, 150 mM NaCl, 2 mM beta-mercaptoethanol, 1% glycerol, 5 mM MgCl2, 5 mM ADP. The note with it: both partners purified.

B1: N-myc 64-137 (domain or fragment)
chain: GAMGSRGFAEHSSEPPSWVTEMLLENELWGSPAEEDAFGLGGLGGLTPNPVILQDCMWSGFSAREKLERAVSEKLQHG
notes: N-myc residues 64-137 (AIH and MBII); 15N-labelled; not shown: His-NusA, N-terminal, cleaved
B1: the binding result is given as “binds”.

B2: N-myc transactivation domain, N-myc 1-137 (domain or fragment)
chain: GAMMPSCSTSTMPGMICKNPDLEFDSLQPCFYPDEDDFYFGGPDSTPPGEDIWKKFELLPTPPLSPSRGFAEHSSEPPSWVTEMLLENELWGSPAEEDAFGLGGLGGLTPNPVILQDCMWSGFSAREKLERAVSEKLQHG
notes: 15N-labelled for the NMR titration; also called N-myc TAD; N-myc_(1-137) TAD; not shown: His-NusA, N-terminal, cleaved
For B2, the binding result is “binds”.

These data come from publication doi:10.1101/2024.05.22.595265 (bioRxiv, 2024).
